Measurements published in paper PMC9267027.
Values joined by “and” are separate entries in the source; they are usually repeats but may differ in a detail not shown here. Identical values can stand only once.

Target: Amy117, neopullulanase (NPase) from B. pseudofirmus 703 (B. pseudofirmus 703)
Experiment: AUC; sedimentation velocity, 50 mM Na2HPO4-NaH2PO4 buffer pH 7.0, 20 °C, 38,000 rpm, absorbance at 280 nm, c(s) model in SEDFIT; oligomeric state

Amy117, neopullulanase (NPase) from B. pseudofirmus 703 (enzyme)
percent as a tetramer: 3.3% | percent in the dimerized form: 68.7% | percent in the monomeric form: 24.3% | stoichiometry N: 2 and 4
